Results as given in paper PMC5655499, “Peptide array-based screening reveals a large number of proteins interacting with the ankyrin-repeat domain of the zDHHC17 S-acyltransferase” (The Journal of Biological Chemistry, 2017).

B1: CSPα 15-mer peptide (wild type) containing the zDABM [not stated] / His6-tagged AR domain (residues 51–288) of zDHHC17 [human] (parent)
chain 1: THIDDYSTWDIVKATQYGIYERCRELVEAGYDVRQPDKENVTLLHWAAINNRIDLVKYYISKGAIVDQLGGDLNSTPLHWATRQGHLSMVVQLMKYGADPSLIDGEGCSCIHLAAQFGHTSIVAYLIAKGQDVDMMDQNGMTPLMWAAYRTHSVDPTRLLLTFNVSVNLGDKYHKNTALHWAVLAGNTTVISLLLEAGANVDAQNIKGESALDLAKQRKNVWMINHLQEARQAKGYDN
chain 2: TDTPIVIQPASATET
B2: SNAP25 15-mer peptide (wild type) containing the zDABM [not stated] / His6-tagged AR domain (residues 51–288) of zDHHC17 [human] (parent)
chain 1: B1 chain 1
chain 2: QDGVVASQPARVVDE

Variants of: B1
Assay: far-Western blotting on peptide array
Details: with His6-tagged AR domain (residues 51–288) of zDHHC17 [human]; ARzD17-His 500 nm in PBS-T, overnight, 4 °C
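Further: PSSM score: binding signal versus wild type scaled to sum 1 per position.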

Screen value, < 0.005:
chain 2 P9C
chain 2 P9R
chain 2 P9F
chain 2 P9T
chain 2 P9I
chain 2 P9M
chain 2 P9N
chain 2 P9G
chain 2 P9E
chain 2 P9S
chain 2 P9W
chain 2 P9V
chain 2 P9Q
chain 2 P9A
chain 2 P9H
chain 2 P9L
chain 2 P9K
chain 2 P9Y
chain 2 P9D
chain 2 I7P
chain 2 Q8G
chain 2 Q8H
chain 2 Q8D
chain 2 Q8A
chain 2 Q8N
chain 2 Q8W
chain 2 Q8K
chain 2 Q8F
chain 2 Q8P
chain 2 Q8L
chain 2 Q8T
chain 2 Q8S
chain 2 Q8E
chain 2 Q8V
chain 2 Q8I
chain 2 Q8Y
chain 2 Q8R
chain 2 A10D
chain 2 S11E
chain 2 S11D
chain 2 I5P
chain 2 I5S
chain 2 I5W
chain 2 I5F
chain 2 I5N
chain 2 I5K
chain 2 I5D
chain 2 I5E
chain 2 I5A
chain 2 I5R
chain 2 I5H
chain 2 I5G
chain 2 I5Q
chain 2 I5Y
chain 2 I5M
chain 2 I5T
chain 2 I5L
chain 2 P4L
chain 2 P4R
chain 2 P4M
chain 2 P4K
chain 2 P4N
chain 2 P4F
chain 2 P4D
chain 2 P4Q
chain 2 P4S
chain 2 P4Y
chain 2 V6D
chain 2 V6A
chain 2 V6P
chain 2 V6G

Variants of: B2
Assay: far-Western blotting on peptide array
Details: with His6-tagged AR domain (residues 51–288) of zDHHC17 [human]; ARzD17-His 500 nm in PBS-T, overnight, 4 °C

Screen value, < 0.005:
chain 2 A10D
chain 2 V4D
chain 2 V4Q
chain 2 V4K
chain 2 V4W
chain 2 V4E
chain 2 V4H
chain 2 V4F
chain 2 V4A
chain 2 V4Y
chain 2 V4T
chain 2 V4M
chain 2 V4G
chain 2 V4N
chain 2 V4L
chain 2 V4S
chain 2 V4R
chain 2 P9T
chain 2 P9D
chain 2 P9Q
chain 2 P9A
chain 2 P9N
chain 2 P9W
chain 2 P9Y
chain 2 P9M
chain 2 P9K
chain 2 P9V
chain 2 P9G
chain 2 P9F
chain 2 P9R
chain 2 P9E
chain 2 P9S
chain 2 P9H
chain 2 P9L
chain 2 P9C
chain 2 A6P
chain 2 A6G
chain 2 V5Y
chain 2 V5D
chain 2 V5L
chain 2 V5P
chain 2 V5S
chain 2 V5T
chain 2 V5N
chain 2 V5H
chain 2 V5E
chain 2 V5A
chain 2 V5K
chain 2 V5W
chain 2 V5G
chain 2 V5Q
chain 2 V5M
chain 2 V12D
chain 2 V12E
chain 2 Q8F
chain 2 Q8V
chain 2 Q8G
chain 2 Q8N
chain 2 Q8T
chain 2 Q8S
chain 2 Q8W
chain 2 Q8H
chain 2 Q8P
chain 2 Q8A
chain 2 Q8I
chain 2 Q8E
chain 2 Q8Y
chain 2 Q8D
chain 2 S7G
chain 2 S7P
chain 2 R11D
chain 2 R11L
chain 2 R11M
chain 2 R11N
chain 2 R11Y
chain 2 R11V
chain 2 R11E
chain 2 R11F
chain 2 R11I
chain 2 R11T
chain 2 R11Q
